One molecule from PMC7144898 (Nucleic Acids Research, 2020) can be followed below.

The assay concerns the target T1, Recombinant N-terminal (His)6-tagged P. abyssi ASH-Ski2, full length (Pyrococcus abyssi, UniProt Q9V2M1 1-855).
T1 sequence (looked up): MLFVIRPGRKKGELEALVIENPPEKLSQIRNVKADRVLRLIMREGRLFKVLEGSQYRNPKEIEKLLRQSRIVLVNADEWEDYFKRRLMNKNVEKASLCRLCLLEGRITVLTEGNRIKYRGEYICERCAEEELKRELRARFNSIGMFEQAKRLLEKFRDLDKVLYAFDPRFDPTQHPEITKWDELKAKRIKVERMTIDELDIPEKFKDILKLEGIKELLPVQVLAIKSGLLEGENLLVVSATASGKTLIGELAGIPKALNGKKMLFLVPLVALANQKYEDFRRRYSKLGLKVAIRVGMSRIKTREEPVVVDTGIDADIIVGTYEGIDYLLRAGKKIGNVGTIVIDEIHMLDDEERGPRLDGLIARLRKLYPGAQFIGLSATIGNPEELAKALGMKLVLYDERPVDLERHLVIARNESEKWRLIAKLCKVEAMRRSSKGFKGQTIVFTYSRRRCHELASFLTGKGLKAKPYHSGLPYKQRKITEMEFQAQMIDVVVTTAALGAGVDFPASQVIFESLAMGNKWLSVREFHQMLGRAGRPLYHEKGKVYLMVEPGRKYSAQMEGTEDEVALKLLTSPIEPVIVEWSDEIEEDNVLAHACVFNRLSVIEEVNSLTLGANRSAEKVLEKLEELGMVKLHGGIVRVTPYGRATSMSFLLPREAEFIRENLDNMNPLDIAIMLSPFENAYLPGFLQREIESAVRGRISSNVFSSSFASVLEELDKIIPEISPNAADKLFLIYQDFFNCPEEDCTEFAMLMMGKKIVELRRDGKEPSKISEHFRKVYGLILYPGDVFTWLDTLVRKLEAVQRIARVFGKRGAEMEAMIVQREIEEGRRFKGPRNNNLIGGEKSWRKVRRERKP
Briefly: co-sedimentation.

B1: Recombinant aRNase J from P. abyssi with C-terminal (His)6-tag (enzyme, Pyrococcus abyssi, UniProt Q9V076 1-451, looked up)
chain: MWEEINMIKIYTLGGYEEVGKNMTAVEYNGEVVIVDMGIRLDRVLIHEDVEFQKMSSKDLRKLGAIPDDRPIRNKKVVAIALSHGHLDHIGAVGKLAPHYPDVPIYGTPYTIRLAKSEIKGEEYFEVTNPLYETNYGEIVQVSENLAIEFVQITHSIPQSSIVVIHTPEGAVVYACDYKFDNNHPYGERPDYKRLKELGKEGVKVLIAESTRVAEETKTPSEAVAKMLLEDFFLYEGMEADGLIATTFASHIARLQELIEIANKMGRQAIFIGRSLAKYTGIAKQLGLIKMKGSRVLRSPNAVSKVLKEVSQARENYLLIVTGHQGEPGAILTRMANGELYDIGPRDTVVFSAGVIPNPLNVAQRYALETKLRMKGVRMIKNLHVSGHASKEDHRYLIRMLNPEYIVPAHGEFRMLTHYAELAEEEGYMIGKEVFISRNGHVVEIPGSLEG
As to B1, the binding result was “binds”.
